According to patent US20220403028A1 (NUMAB THERAPEUTICS, published 2022):

Assays:
[1] = target: cynomolgus CD3ε (recombinant, coupled to the SPR chip) (cynomolgus (Macaca fascicularis)) (UniProt Q95LI5); experiment: SPR (Biacore T200), CD3ε amine-coupled to CM5 chip, scFv as analyte, 1:1 Langmuir fit
human CD3ε on T cells = human CD3ε on T cells (human, UniProt P07766 23-207); experiment: cell-based or functional assay
Chain of human CD3ε on T cells (P07766 23-207 limits assumed): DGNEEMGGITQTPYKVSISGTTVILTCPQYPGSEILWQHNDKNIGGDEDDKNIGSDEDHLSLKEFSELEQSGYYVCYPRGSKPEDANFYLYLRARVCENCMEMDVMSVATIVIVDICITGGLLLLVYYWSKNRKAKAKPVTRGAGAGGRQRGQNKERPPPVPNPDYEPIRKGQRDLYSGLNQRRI

B1: 28-21-D09-sc18 (scFv)
scFv: DIQMTQSPSSLSASVGDRVTITCQSSQSVFSNNYLAWYQQKPGQSPKRLIYSASTLASGVPSRFSGSGSGTHFTLTISSLQPEDFATYYCLGSYACSSADCYVFGTGTKVTVLGGGGGSGGGGSGGGGSGGGGSEVQLVESGGGLVQPGGSLRLSCAASGFSLSSYDMSWVRQAPGKGLEWIGASYASGPTYYASWAKGRFTISRDNSKNTVYLQMNSLRAEDTAVYYCARGGWTGTSHSNIWGQGTLVTVSS
[1]
  Kd: 14.2 nM

B2: 28-21-D09-sc19 (scFv)
scFv: DIQMTQSPSSLSASVGDRVTITCQSSQSVFSNNYLAWYQQKPGQSPKRLIYSASTLASGVPSRFSGSGSGTDFTLTISSLQPEDFATYYCLGSYACSSADCYVFGTGTKVTVLGGGGGSGGGGSGGGGSGGGGSEVQLVESGGGLVQPGGSLRLSCAASGFSLSSYDMSWVRQAPGKGLEWIGASYASGPTYYASWAKGRFTISRDNSKNTVYLQMNSLRAEDTAVYYCARGGWTGTSHSNIWGQGTLVTVSS
[1]
  Kd: 19.5 nM

B3: 28-21-D09-sc16 (scFv)
scFv: DIQMTQSPSSLSASVGDRVTITCQSSQSVFSNNYLAWYQQKPGQSPKRLIYSASTLASGVPSRFSGSGSGTDFTLTISSLQPEDFATYYCLGSYACSSADCYVFGTGTKVTVLGGGGGSGGGGSGGGGSGGGGSEVQLVESGGGLVQPGGSLRLSCAASGFSLSSYDMSWVRQAPGKGLEWIGASYASGPTYYASWAKGRFTISRDNSKNTVYLQMNSLRAEDTATYFCARGGWTGTSHSNIWGQGTLVTVSS
[1]
  Kd: 16.6 nM

B4: 28-21-D09-sc04 (scFv)
scFv: DIQMTQSPSSLSASVGDRVTITCQSSQSVFSNNYLAWFQQKPGQSPKRLIYSASTLASGVPSRFSGSGSGTDFTLTISSLQPEDFATYYCLGSYACSSADCYVFGTGTKVTVLGGGGGSGGGGSGGGGSGGGGSEVQLVESGGGLVQPGGSLRLSCAASGFSLSSYDMSWVRQAPGKGLAWIGASYASGPTYYASWAKGRFTISRDNSKNTVYLQMNSLRAEDTATYFCARGGWTGTSHSNIWGQGTLVTVSS
[1]
  Kd: 4.78 nM

B5: 28-21-D09-sc15 (scFv)
scFv: DIQMTQSPSSLSASVGDRVTITCQSSQSVFSNNYLAWYQQKPGQSPKRLIYSASTLASGVPSRFSGSGSGTHFTLTISSLQPEDFATYYCLGSYACSSADCYVFGTGTKVTVLGGGGGSGGGGSGGGGSGGGGSEVQLVESGGGLVQPGGSLRLSCAASGFSLSSYDMSWVRQAPGKGLEWIGASYASGPTYYASWAKGRFTISRDNSKNTVYLQMNSLRAEDTATYFCARGGWTGTSHSNIWGQGTLVTVSS
[1]
  Kd: 13.7 nM

B6: PRO389 (IL23R×CD3 1st gen Numab) (bispecific antibody)
chain: DIQMTQSPSSLSASVGDRVTITCQASENIYSFLAWYQQKPGKAPKLLIYSASKLAAGVPSRFSGSGSGTDFTLTISSLQPEDFATYYCQQTNRYSNPDIYNVFGTGTKVTVLGGGGGSEVQLVESGGGLVQPGGSLRLSCAASGFPLSSYAMIWVRQAPGKGLEWIGMILRAGNIYYASWVKGRFTISRDNSKNTVYLQMNSLRAEDTAVYYCARRHYNREGYPIGIGDLWGQGTLVTVSSGGGGSGGGGSGGGGSGGGGSDIQMTQSPSSLSASVGDRVTITCQSSESVYNNKRLSWYQQKPGKAPKLLIYTASSLASGVPSRFSGSGSGTDFTLTISSLQPEDFATYYCQGEFTCSNADCFTFGTGTKVTVLGGGGGSEVQLVESGGGLVQPGGSLRLSCAASGIDFNSNYYMCWVRQAPGKGLEWIGCIYVGSHVNTYYANWAKGRFTISRDNSKNTVYLQMNSLRAEDTAVYYCATSGSSVLYFKFWGQGTLVTVSS
Human CD3ε on T cells
  EC50 of specific target cell lysis (IL-23R-expressing CHO-K1 target cells, human PBMCs, flow cytometry cytotoxicity assay): 0.0053 nM
